Measurements taken from patent US20090286242A1, “MicroRNA Expression Profiling and Uses Thereof” (COLD SPRING HARBOR LABORATORY, priority 2007, published 2009).

Experiments:
miR-205 = assay: Stem-loop qRT-PCR of mature miRNA in Wnt-1-expressing Comma-Dβ cells; format: cell-based, mouse; details: data not shown
Description: 1-4 μg of total RNA from sorted cells was used for small RNA cloning performed as described in Pfeffer et al, 2005 (incorporated by reference). Illumina 1G sequencing and analysis was performed as described Stark et al. 2007 (incorporated by reference). miRNA expression analyses mature miRNAs were quantified using the TaqMan MicroRNA Assays previously described by Chen et al., 2005 (Applied Biosystems, incorporated by reference).
Data was normalized to Actin using SuperScript III SYBR Green One-Step qRT-PCR system (Invitrogen). The experiments were repeated twice and all reactions were run in triplicate.

Comma-Dβ cells = assay: ALDEFLUOR / Sca-1 FACS analysis of Comma-Dβ cell compartments; format: cell-based, mouse; details: ectopic expression in Comma-Dβ cells

B1: Wnt-1: Wnt-1 ectopically expressed from an MSCV-hygro vector (Wnt-1MSCV) (protein, UniProt P04426 28-370, looked up)
Proto-oncogene Wnt-1: ANSSGRWWGIVNIASSTNLLTDSKSLQLVLEPSLQLLSRKQRRLIRQNPGILHSVSGGLQSAVRECKWQFRNRRWNCPTAPGPHLFGKIVNRGCRETAFIFAITSAGVTHSVARSCSEGSIESCTCDYRRRGPGGPDWHWGGCSDNIDFGRLFGREFVDSGEKGRDLRFLMNLHNNEAGRTTVFSEMRQECKCHGMSGSCTVRTCWMRLPTLRAVGDVLRDRFDGASRVLYGNRGSNRASRAELLRLEPEDPAHKPPSPHDLVYFEKSPNFCTYSGRLGTAGTAGRACNSSSPALDGCELLCCGRGHRTRTQRVTERCNCTFHWCCHVSCRNCTHTRVLHECL
- miR-205 level compared to empty vector control cells (miR-205): 6 fold
- increase in the ALDH bright Sca-1 high population (Comma-Dβ cells): 3.5 fold
